The values below come from US20190153112A1 (IMMUTEP S A S, published 2019).

In experiment [1] the target is human LAG-3 protein (Lymphocyte activation gene-3) on the cell surface (human) (UniProt P18627). In words: flow cytometry on CHO-LAG-3+ cells; antibody 1905 ng/ml.
Experiment [2] shares this target. Kind of experiment: flow cytometry on CHO-LAG-3+ cells; antibody 6000 ng/ml.
Experiment [3] shares this target. In words: flow cytometry on CHO-LAG-3+ cells; antibody 605 ng/ml.
For experiment [4] the target is unchanged. Kind of experiment: flow cytometry on CHO-LAG-3+ cells; antibody 192 ng/ml.
For experiment [5] the target is unchanged. In words: flow cytometry on CHO-LAG-3+ cells; antibody 0 ng/ml (no-antibody background).
For experiment [6] the target is unchanged. In words: flow cytometry on CHO-LAG-3+ cells; antibody 61 ng/ml.
The target is the same in experiment [7]. Kind of experiment: flow cytometry on CHO-LAG-3+ cells; antibody 6 ng/ml.
Experiment [8] has the same target. In words: flow cytometry on CHO-LAG-3+ cells; antibody 20 ng/ml.
In experiment [9] the target is T1, human LAG-3 protein (Lymphocyte activation gene-3) on the cell surface (human, UniProt P18627 23-525).
T1 construct: also called CD223; CHO LAG-3+
T1 sequence: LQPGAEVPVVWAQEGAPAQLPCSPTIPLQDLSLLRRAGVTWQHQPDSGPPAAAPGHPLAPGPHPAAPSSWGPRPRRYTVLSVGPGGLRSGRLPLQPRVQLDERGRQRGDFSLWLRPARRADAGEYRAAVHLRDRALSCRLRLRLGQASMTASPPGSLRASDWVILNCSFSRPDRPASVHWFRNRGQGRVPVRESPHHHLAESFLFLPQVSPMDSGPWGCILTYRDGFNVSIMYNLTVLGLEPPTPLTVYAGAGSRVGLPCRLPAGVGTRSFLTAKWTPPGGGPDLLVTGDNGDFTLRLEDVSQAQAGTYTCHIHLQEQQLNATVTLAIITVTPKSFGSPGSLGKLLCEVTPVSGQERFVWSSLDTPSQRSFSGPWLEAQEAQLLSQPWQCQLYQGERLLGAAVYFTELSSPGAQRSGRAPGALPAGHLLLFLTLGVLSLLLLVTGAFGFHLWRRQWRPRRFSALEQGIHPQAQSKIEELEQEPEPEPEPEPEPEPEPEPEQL
Kind of experiment: flow cytometry on LAG-3-expressing CHO cells, four independent experiments; reference 17B4. On the procedure: (§1) LAG-3⁺-transfected CHO cells, or SEB-stimulated PBMCs from a healthy donor were incubated with anti-LAG-3 monoclonal antibody, or an isotype control (mIgG1) for 30 minutes in PBS, BSA 0.5%, Azide 0.1% at 4° C. […] The secondary antibody was washed away, and the CHO cells were directly analyzed by flow cytometry. The PBMCs were phenotyped using CD4-PE-Cy7 and CD8-APC-Cy7.

Experiment [10] concerns the target T1, human LAG-3 protein (Lymphocyte …). In words: flow cytometry on CD8+ cells of SEB-stimulated PBMCs, mean of three donors. On the procedure:
as §1

Experiment [11] shares this target. Kind of experiment: flow cytometry on CD4+ cells of SEB-stimulated PBMCs (Donor 1), from Table 13. On the procedure: as §1
For experiment [12] the target is unchanged. Kind of experiment: flow cytometry on CD4+ cells of SEB-stimulated PBMCs, mean of three donors. On the procedure:
as §1

Experiment [13] shares this target. In words: flow cytometry on CD4+ cells of SEB-stimulated PBMCs, three donors; reference 17B4. On the procedure: as §1
For experiment [14] the target is unchanged. In words: flow cytometry on CD8+ cells of SEB-stimulated PBMCs, three donors; reference 17B4. On the procedure:
as §1

For experiment [15] the target is unchanged. Kind of experiment: flow cytometry on CD8+ cells of SEB-stimulated PBMCs (Donor 1), from Table 13. On the procedure: as §1

Turning to “human IgG4 (isotype-matched negative control) (antibody)”, the MFI FITC in experiment [1] was found to be 77 MFI; in experiment [2], 71 MFI; in experiment [3], 46 MFI; in [4] it was 59 MFI; in [5], 35 MFI; in experiment [6], 69 MFI. Besides, the MFI FITC turned out to be 37 MFI in experiment [7] and 49 MFI in experiment [8].

B1: mouse monoclonal anti-LAG-3 antibody 13E2 (antibody, V domains shown)
VH: QVTLKESGPGILQPSQTLSLTCSFSGFSLSTSGMGLGWIRQPSGKGLEWLTHIWWDDIKRYNPDLRSRLTISKDTSSSQIFLKIASVDTADTATYYCARIVEGSYSSSYFDVWGAGTTVTVSS
VL: DIVMTQPHKFMSTSVEDRVTITCKASQDVIFDVAWYQQKPGQSPKLLIYSASSRVSGVPDRFTGSGSGTDFTFTISSVQAEDLAVYYCQQHYSTPYTFGGGTTLEIK
notes: Whole mouse monoclonal antibody from a hybridoma; mIgG1 was used as its isotype control
B1: the “ratio of mean EC50 against 17B4” value in experiment [9] was 2.7 times; in experiment [13] it was 3.8 times; in [14] it was 2.5 times. For the same molecule, the EC50 worked out at 0.4 nM in experiment [10], 0.1 nM in experiment [11], 0.2 nM in [12] and 0.3 nM in experiment [15].
